Molecular target: SARS-CoV-1 RBD monomer (N321-P513) with C-terminal AVI-tag and 6xHIS-tag (SARS-CoV-1)
Test: SPR

Sequence of soluble human ACE2, truncated ectodomain (S19-D615), C-terminal 6xHIS-tag (Q9BYF1 19-615): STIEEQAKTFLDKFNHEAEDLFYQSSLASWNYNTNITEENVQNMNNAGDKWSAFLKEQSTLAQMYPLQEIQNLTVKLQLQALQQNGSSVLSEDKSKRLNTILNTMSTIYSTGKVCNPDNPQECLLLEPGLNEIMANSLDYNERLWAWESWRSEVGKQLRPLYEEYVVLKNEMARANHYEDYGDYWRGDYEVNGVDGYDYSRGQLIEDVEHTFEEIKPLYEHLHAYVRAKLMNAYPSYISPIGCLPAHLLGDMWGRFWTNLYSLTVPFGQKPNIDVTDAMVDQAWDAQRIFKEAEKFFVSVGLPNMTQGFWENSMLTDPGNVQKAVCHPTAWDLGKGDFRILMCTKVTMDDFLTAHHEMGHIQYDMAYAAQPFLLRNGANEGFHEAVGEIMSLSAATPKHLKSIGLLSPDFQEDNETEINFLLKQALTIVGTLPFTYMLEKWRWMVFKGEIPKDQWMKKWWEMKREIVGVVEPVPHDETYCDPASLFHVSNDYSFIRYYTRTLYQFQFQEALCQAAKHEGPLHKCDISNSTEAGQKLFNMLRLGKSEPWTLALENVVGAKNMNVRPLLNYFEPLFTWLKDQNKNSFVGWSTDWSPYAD

soluble human ACE2, truncated ectodomain (S19-D615), C-terminal 6xHIS-tag (from UniProt Q9BYF1 19-615) (receptor)
Kd: 253 nM
